Data on 9 molecules can be found in patent US20240301052A1 (LANOVA MEDICINES DEVELOPMENT, published 2024).

Where two headings read alike, the source gives them in different places.

The target of assay [1] is T1, human SLC34A2 (human, UniProt O95436 1-690).
T1 construct: whole, on cells; also called human solute carrier 34 A2; NaPi2b
T1 sequence (looked up): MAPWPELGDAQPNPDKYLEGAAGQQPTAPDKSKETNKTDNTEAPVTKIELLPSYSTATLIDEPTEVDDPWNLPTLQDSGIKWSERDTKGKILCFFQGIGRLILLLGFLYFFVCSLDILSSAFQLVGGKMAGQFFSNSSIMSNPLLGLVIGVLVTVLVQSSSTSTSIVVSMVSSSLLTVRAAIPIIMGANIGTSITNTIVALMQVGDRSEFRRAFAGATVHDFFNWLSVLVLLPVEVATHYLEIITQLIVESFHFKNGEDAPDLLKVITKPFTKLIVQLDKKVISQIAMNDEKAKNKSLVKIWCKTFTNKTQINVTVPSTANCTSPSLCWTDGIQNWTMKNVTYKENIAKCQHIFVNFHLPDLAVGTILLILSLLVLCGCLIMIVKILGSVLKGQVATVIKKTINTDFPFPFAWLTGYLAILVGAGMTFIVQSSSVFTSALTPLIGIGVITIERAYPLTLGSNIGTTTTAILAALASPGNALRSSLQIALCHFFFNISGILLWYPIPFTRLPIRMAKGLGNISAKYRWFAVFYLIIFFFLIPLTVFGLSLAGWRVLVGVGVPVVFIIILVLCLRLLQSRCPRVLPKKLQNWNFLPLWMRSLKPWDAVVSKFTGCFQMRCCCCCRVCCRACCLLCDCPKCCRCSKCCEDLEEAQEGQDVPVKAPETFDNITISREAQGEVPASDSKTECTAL
The experiment in a line: FACS, OVCAR3 cells. On the technique in general: Flow cytometry measures light scatter and fluorescence of single cells or particles in a stream.

The target in assay [2] is T2, Cynomolgus SLC34A2 (Cynomolgus, UniProt A0A2K5UHY1 1-690).
T2 construct: whole, on cells; also called Cyno SLC34A2
T2 sequence: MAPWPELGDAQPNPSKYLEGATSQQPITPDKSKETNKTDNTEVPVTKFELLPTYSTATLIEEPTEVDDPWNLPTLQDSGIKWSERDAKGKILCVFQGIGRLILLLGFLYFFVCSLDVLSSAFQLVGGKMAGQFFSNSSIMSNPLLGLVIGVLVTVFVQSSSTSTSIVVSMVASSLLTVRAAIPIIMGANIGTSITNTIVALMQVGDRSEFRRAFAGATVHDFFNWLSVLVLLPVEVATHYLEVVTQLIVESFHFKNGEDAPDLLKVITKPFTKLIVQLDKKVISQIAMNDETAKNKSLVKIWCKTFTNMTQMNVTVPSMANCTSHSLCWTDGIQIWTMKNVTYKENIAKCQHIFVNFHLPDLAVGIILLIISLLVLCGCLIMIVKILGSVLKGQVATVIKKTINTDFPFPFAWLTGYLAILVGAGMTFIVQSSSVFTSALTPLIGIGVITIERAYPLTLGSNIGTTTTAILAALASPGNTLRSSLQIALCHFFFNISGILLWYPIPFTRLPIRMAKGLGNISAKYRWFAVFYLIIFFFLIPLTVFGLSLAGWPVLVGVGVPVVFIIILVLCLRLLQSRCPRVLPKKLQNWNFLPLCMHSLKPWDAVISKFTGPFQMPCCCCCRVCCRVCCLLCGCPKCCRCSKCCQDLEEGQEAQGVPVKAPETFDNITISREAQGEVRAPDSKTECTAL
In words: FACS, cells expressing Cynomolgus SLC34A2.

Assay [3] has as its target T2, Cynomolgus SLC34A2. In words: FACS, cells expressing Cynomolgus SLC34A2. The source holds these as a separate data set.
The target in assay [4] is T1, human SLC34A2. In words: FACS, OVCAR3 cells. The source holds these as a separate data set.
Assay [5] deals with T1, human SLC34A2. In words: FACS, OVCAR3 cells.
Assay [6] concerns the target T1, human SLC34A2. The experiment in a line: FACS, HEK293/human SLC34A2 cells.
Assay [7] addresses Cynomolgus SLC34A2 (Cynomolgus). In words: FACS, cells expressing Cynomolgus SLC34A2.
The target is the same in assay [8]. The experiment in a line: FACS, cells expressing Cynomolgus SLC34A2. This is another data set of the same source.
Assay [9] concerns the target T1, human SLC34A2. The experiment in a line: FACS, RMG-1 cells.
For assay [10], the target named is T1, human SLC34A2. The experiment in a line: FACS, OVCAR3 cells. The source holds these as a separate data set.
A further assay addresses T3, rat SLC34A2 (rat, UniProt Q9JJ09 1-695).
T3 construct: whole, on cells
T3 sequence (looked up): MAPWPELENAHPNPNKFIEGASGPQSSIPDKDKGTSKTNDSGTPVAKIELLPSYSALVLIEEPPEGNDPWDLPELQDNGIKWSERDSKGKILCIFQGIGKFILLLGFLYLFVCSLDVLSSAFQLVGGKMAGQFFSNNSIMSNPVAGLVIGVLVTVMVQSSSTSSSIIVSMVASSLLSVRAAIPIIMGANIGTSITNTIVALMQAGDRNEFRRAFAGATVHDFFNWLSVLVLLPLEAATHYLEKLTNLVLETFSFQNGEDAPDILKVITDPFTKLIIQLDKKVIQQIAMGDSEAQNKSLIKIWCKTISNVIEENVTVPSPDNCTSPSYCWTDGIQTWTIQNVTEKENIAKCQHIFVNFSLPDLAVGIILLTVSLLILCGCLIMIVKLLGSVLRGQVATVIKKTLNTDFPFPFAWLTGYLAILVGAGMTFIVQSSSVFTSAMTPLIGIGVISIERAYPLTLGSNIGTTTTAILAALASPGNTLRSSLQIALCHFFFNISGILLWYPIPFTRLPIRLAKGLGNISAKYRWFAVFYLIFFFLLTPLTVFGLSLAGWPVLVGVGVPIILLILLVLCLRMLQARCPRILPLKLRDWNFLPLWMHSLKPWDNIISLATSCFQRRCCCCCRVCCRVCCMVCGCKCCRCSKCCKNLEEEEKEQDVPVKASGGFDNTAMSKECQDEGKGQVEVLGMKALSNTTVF
The experiment in a line: FACS, HEK293/Rat SLC34A2 cells.

B1: xi63A11D5B4 hIgG1 (antibody, V domains shown)
VH: QVQLQQPGAELVKPGASVKMSCRTSGYTFITYNMHWVKQTPGQGREWIGAIYPGNGDTSYNQKFKGKATLTADKSSSTAYMQLNSLTSEDSAVYYCSISTIITTGAVDYWGQGTSVTVAS
VL: DIVMTQSHKFMSTSVGDRVSITCKASQDVGTAVAWYQQKAGQSPKLLIYWTSTRHTGVPDRFTGSGSGTDFTLIIRSLQSEDLADYFCQQYSRIPLTFGSGTKLEIK
notes: chimeric, hIgG1
Broadly, the EC50 is the concentration at which the effect is half-maximal. A lower EC50 goes with greater potency. As to B1, in the assay with human SLC34A2 [1], the EC50 turned out to be 10.5 nM and the “Top (MFI)” value is 32100 MFI. In the assay with Cynomolgus SLC34A2 [2], the EC50 came to 5.33 nM and the “Top (MFI)” value was determined as 3510 MFI.

B2: 91C9F1.p1.z7 hIgG1 (antibody, V domains shown)
VH: QVQLVQSGAEVKKPGSSVKVSCKTSGFFFTEYIIHWVRQAPGQGLEWIGGIIPNNDVTNYKQNFRGRVTLTADKSTSTAYMELSSLRSEDTAVYYCARWRNAYYSAMDSWGQGTTVTVSS
VL: DIQVTQSPSSLSTSVGDRVTITCTASQDVGTAVAWYQQKPGKSPKLLIYWASTRHTGVPERFTGSGSGTDFTLTISSVQPEDVATYFCQQYRTSPLTFGVGTKVEIK
notes: humanized hIgG1
Turning to B2, the EC50 was determined as 45.7 nM in the assay with Cynomolgus SLC34A2 [3] and 1.67 nM in the assay with human SLC34A2 [4]. In the assay with human SLC34A2 [4], the “Top (MFI)” value came out at 37400 MFI.

B3: xi91C9F1 hIgG1 (antibody, V domains shown)
VH: EVQLQQSGPELVKPGTSVKISCKTSGFFFTEYIIHWVKQSHGRSLEWIGGIIPNNGVTNYKQNFRGKAALTADKSSNTAYMELRSLTSEDSAVYYCARWRNGYYSAMDSWGQGTSVTVSS
VL: DIVVTQSHKFMSTSLGDRVSITCTASQDVGTAVAWYQQKPGHSPKLLIYWASTRHTGVPERFTGSGSGTDFTLTITNVQSEDLADYFCQQYRTSPLTFGVGTKLELK
notes: chimeric, hIgG1
As to B3, in the assay with Cynomolgus SLC34A2 [2], the EC50 was 9.11 nM and the “Top (MFI)” value was found to be 2430 MFI. For the same molecule, in the assay with human SLC34A2 [4], the EC50 worked out at 1.77 nM and the “Top (MFI)” value was determined as 32100 MFI.

B4: 30H9B8F9.p1.z5 hIgG1 (antibody, V domains shown)
VH: QVQLVQSGAEVKKPGASVKVSCKTSGYTFTTNNMHWVRQAPGQGLEWIGAIYPGSGATAYNQKFKGRVTMTADTSTSTVYMELSSLRSEDTAVYYCARGMYGHGAMDYWGQGTLVTVSS
VL: DIQLTQSPSFLSASVGDRVTITCKASQDVGTAVAWYQQKPGKAPKLLIYWATTRHSGVPSRFSGSGSGTEFTLTISSLQPEDFATYYCQQYSSNPLTFGQGTKLEIK
notes: humanized hIgG1
The molecule B4 came in with an EC50 with Cynomolgus SLC34A2 [3] of 0.97 nM.

B5: 62G10E4G8.p3.z15 hIgG1 (antibody, V domains shown)
VH: QVQLVQSGAEVVKPGASVKMSCKASGYTFPSYITHWVKQAPGQGLEWIGAIYPGNADTSYIQKFKGRATLTADKSTSTAYMELSSLRSEDTAVYYCARGTYGTSAWFTYWGQGTLVTVSS
VL: EIVLTQSPATLSVSPGERATLSCRARQNIGNNLYWYQQKPGQSPRLLIKYASQSISGIPSRFSGSGSGTDFTLTISSLQSEDFAVYFCQQSFSWPLTFGQGTKLEIK
notes: humanized hIgG1
For the molecule B5, the concentration giving a half-maximal response (EC50) in the assay with Cynomolgus SLC34A2 [3] came to 1.63 nM.

B6: xi62G10E4G8 hIgG1 (antibody, V domains shown)
VH: QVQLQQSGAEVVKPGASVKMSCKASGYTFPSYITHWVKQTPGQGLEWIGAIYPGNGDTSYIQKFKGKATLTADKSSSTAYMQLSSLTSEDSAVYYCARGTYGTSAWFTYWGQGTLVTVSA
VL: DIVLTQSPATLSVTPGDSVSLSCRARQNIGNNLYWYQQKSHESPRLLIKYASQSISGIPSRFSGSGSGTDFTLTINSVETEDFGVYFCQQSFSWPLTFGAGTKLELK
notes: chimeric, hIgG1
With B6, in the assay with Cynomolgus SLC34A2 [2], the EC50 was 3.33 nM and the “Top (MFI)” value worked out at 4020 MFI.

B7: XMT-1536 (antibody, INN chains, looked up, V domains shown)
VH: QVQLVQSGAEVVKPGASVKMSCKASGYTFTGYNIHWVKQAPGQGLEWIGAIYPGNGDTSYKQKFRGRATLTADTSTSTVYMELSSLRSEDSAVYYCARGETARATFAYWGQGTLVTVSS
VL: DIQMTQSPSSLSASVGDRVTITCSASQDIGNFLNWYQQKPGKTVKVLIYYTSSLYSGVPSRFSGSGSGTDYTLTISSLQPEDFATYYCQQYSKLPLTFGQGTKLELK
modifications: rilsodotin auristatin payload
For the molecule B7, the EC50 with human SLC34A2 [5] was determined as 10.3 nM; with human SLC34A2 [6], 4.27 nM; in assay [7], 3.72 nM; in assay [8], 29.3 nM; with human SLC34A2 [9] it was 7.2 nM; with human SLC34A2 [10], 2.68 nM. The molecule further registered an EC50 with rat SLC34A2 of 4.48 nM. Also, in the assay with human SLC34A2 [5], the Top was found to be 22500 MFI. For the same molecule, the results for the Top (MFI) (in [8]; with human SLC34A2 [10]) were 2050 MFI and 32400 MFI, respectively.

B8: xi30H9B8F9 hIgG1 (antibody, V domains shown)
VH: QVQLQQPGAELVKPGASVKMSCKTSGYTFTTNNMHWVKQTPGQGLEWIGAIYPGNGATAYNQKFKGKATLTADKSSSTAYMQLSSLTSEASAVYYCARGMYGHGAMDYWGQGTSVIVSS
VL: DIVMTQSHKFMSRSVGDRVRITCKASQDVGTAVAWYQQKPGQSPKLLIYWATTRHSGVPDRFTGSGSGTDFIFTISNVQSEDLADYFCQQYSSNPLTFGAGTKLELK
notes: chimeric, hIgG1
As for B8, in the assay with Cynomolgus SLC34A2 [2], the midpoint of the response, the EC50, lay at 1.08 nM and the “Top (MFI)” value was 4080 MFI.

B9: 63A11D5B4.p1.z9 hIgG1 (antibody, V domains shown)
VH: QVQLVQSGAEVVKPGASVKMSCKTSGYTFITYNMHWVRQAPGQGLEWIGAIYPGSGDTSYNQKFKGRVTLTADKSTSTAYMELSSLRSEDTAVYYCSISTIITTGAVDYWGQGTLVTVSS
VL: DIQMTQSPSSLSASVGDRVTITCKASQDVGTAVAWYQQKPGKVPKLLIYWTSTRHTGVPSRFSGSGSGTDFTLTISSLQPEDVATYYCQQYSRIPLTFGGGTKVEIK
notes: humanized hIgG1
As for B9, the 50% effective concentration (EC50) with human SLC34A2 [1] came to 9.12 nM; with Cynomolgus SLC34A2 [3] it was 4.45 nM. In addition, in the assay with human SLC34A2 [1], the “Top (MFI)” value amounted to 26500 MFI.
